Literature values as cited in PMC4194041.

Target: AP180 fragment with two D(L/I)(L/F) motifs (UniProt Q61548)
Test: NMR

UniProt Q61548, sequence (Q61548 623-680): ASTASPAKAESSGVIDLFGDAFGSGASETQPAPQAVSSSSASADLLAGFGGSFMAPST

Which Kd does the source give for “Clathrin heavy chain TD (from UniProt P11442)” here?
Its Kd is 250 µM.
